Assay results from the DeepSol protein solubility set.

Test: soluble on expression in E. coli; label from the status in PepcDB or PDB records

Sequence | soluble on expression in E. coli
MAHHHHHHMLKKFSPLSFMVLQKRYNKSEQKIFDKIKNIINSNKNLRHTDDEKDKIEIINIDNEIINKENISFKCNIINEDSTKNENKKDNIDEMTNVNIYDDYFNINDEYNNVMSNDNDNVDIKSFIRETVDYYKSLQLKKKEDHLNVLNVKKKDYSNIKEYYNKNEEIKEIVQDNNFIWNNKNYDKKNIHSGFHSDIIYYDNYDTTKSKHNQNIQNGQNIQNGQNIQNGQNIQNNQNNQNIQNIQNNQNNQHCHNSTHEKNCGSYNFLTPAQVFFENNKEKLIQESYKYYKERENNINKEDYLYDENEGYYNYANMKTPIIRPNDKEGFLFNYEDDDYNNNDDEGEDDMTLEKGIMPTIEQIVCILKHEKVKDIKVIDLDKCGRRDIGMFLILCTGNTAKHNKKVGKLISKIFIDLEIPYISNVVYCYCNKFDDWIITHCGPLKINIVTKELRNLYDIENLFLYPHEHFDSTNFPSFFDYTPGIPPPYLVRSNASMDSYKNDDIYTKFLTEK | not soluble
MKILILGGRFGGLQTAYDLRRYLKNKADIKIIEKNRYIYFRPALPHVGIGLERAEDLRIDLAQVLPDRGIGYIQGTVTKIDPERSLVEYSREGSGGYKEKYDFLVIALGAHLASELIAGFDKYGSSVCEADLAENMWKKLRDFKGGNITLGSAKFIQDTKNRPTNTPDRYAPIADSACEGPVFEMSIMLYDYFKARNMLDKVKMTVYSPGEYLSDLSRTSRSTVAAMYKGMNIELVDNFVVKEVTEKEVISEDGRRLPSDISFILPPYTGQKLVKDAGLGDDVGFVLTGTDMKSVKYDNVYAVGDVNALIVPKMAFLAVKTARIVAANIANRLGMSIPVEVYDPKIVCVADSPYGNYAVAVTDSTFYGGNVSEAIPSPANHLKKTLFTRYFLWSKGDLAMDKYLTSWLEHHHHHH | not soluble
SGNTSSERSGGEKTHRRESRSGKDGTRPKILMDSAEDGDLFQSDDAKEFLAWRQDQESDSKTPLEERPTVFRWKGPGKEIYLSGSFNNWATKIPLNKSHNNFVAIIDLPEGEHQYKFYVDGHWTLDPKEPVVTNKSGVVNNVIKVRKTDFEVFDALKTDSEKCADMSDLSSSPPGPYHQDPYSTKSEDKLRSPPILPPHLLQVLLNKDTGISCDPTLLPEPNHVMLNHLYALSIKDGVMVLSATHRYKKKYVTTLLYKPI | soluble
MGSDKIHHHHHHMSVCARPERPWDERDRERFMHRNKVVSREDWFQAHKAHLAREKELTRLRERVAAERRELPWLKVRKDYVFETEQGPKKLAELFANRSQLIVYHFVFAPGSTHHCESCAFVADHMDGANRHLRHHDVSLVTISRAPLVELLPYKQRMGWTFDWVSSYASDFNFDMQVSFTDRQIASGEAVYNFETPVLTSKDLPGTTVFYKGETGDIFLTFMSRARGSEQFIGAYQYLDIAPKGRDETGPYGTFMDWVRLHDEYGNRSQRDDVCP | not soluble
MSLAGVSVGTVDRVIHNRGRVSEENRKKVQTILEMVHYQPNLMARSLASKKQYHFVAITPSFTHGEYWEAISDGIDKAASEMESYNITITKLFFDQYNNKTFDDIVRNLLDEKVDGVLIATLFTDSVIRLSQELDRNEIPYVYVDSNIEGQHQLAYFGTESYDAGVIAARLLTDKISSTSDILMARIIHSGKNDSNQGKNRREGFCHYLKETGFTGNLHEVELKINDSVYNFIKLDEIFEANATIEGGIIFNSTCYILGNYLKARGMQKVKLVGYDLIERNTQLLSDGVITALVAQRPERQGYDGIKSLCNHLLFKQNPEKVNLMPIDILLKENLKYYLNNKEGHHHHHH | soluble
ATSYMTCSAYQKVQDSEISFPAGVEVQVLEKQESGWWYVRFGELEGWAPSHYLVLDENEQPDPSGKE | soluble
SKFIAKQSVGAEVIDTPRTEEEAWLLNTVEAQARQWNLKTPEVAIYHSPEPNAFATGASRNSSLIAVSTGLLDHMTRDEVEAVLAHEMAHVGNGDM | not soluble
FQGAMDPEFSMKIGIIGAMEEEVTLLRDKIENRQTISLGGCEIYTGQLNGTEVALLKSGIGKVAAALGATLLLEHCKPDVIINTGSAGGLAPTLKVGDIVVSDEARYHDADVTAFGYEYGQLPGCPAGFKADDKLIAAAEACIAELNLNAVRGLIVSGDAFINGSVGLAKIRHNFPQAIAVEMEATAIAHVCHNFNVPFVVVRAISDVADQQSHLSFDEFLAVAAKQSSLMVESLVQKLAHG | soluble
SLSPKFKTIIIDDIPSCVEDIKKIILKDKRFEVVATASNGLEGVDQIRLHNPDLVLTDIEMPVMNGFDMVIGLREMLDLTPTIIFITVYDQYAIQAIRCSAFDFILKTGLDQELPMALNEYVKKRAAKQPLLSKQIESLIKSFERNKQIIIRSNICDNFINPMDIIYISTSKNHANSIYLKNGECIATNQSLSHFEKILSETDFFRLNKSNIININFIKEIRKETNAFRRKYVYMKYTEADIKLAIPPGKYAKLFDFIEENSSEG | not soluble
MKVGIIGKQGRLGRVLQAILDENGFDVVENNWDIAFLSVPIGAAISYIEKYDGPFIEVSSVKTPFKKYAGRIVSIHPLFGPASYKDGVHRTVLFIKDISMPEYRDLIAEMFRGYEIVDTTADVHDKEMAKSLALPYAVAIISKNIDTAFRTKSFDTFKGIVRILENENEEVMLDTINKNPYAQYMYDIVKNLGMVIQMAGDPLEHHHHHH | not soluble
MLTRTDGKGSKVLLIAAMDTKGTEARYIESWLAKAGFTTLIMDMGIRGKRPGPVAVTRDEVLRAAGKTWDDIQNVTSEGDAVDIMISGGVKCALALYKADLIQGVISLGGTMGTTLGTGVMRAFPIGFPKVMISTIAAKDTEAFIGNMDIFMLNSVSDLAGLNRITRKVLRNGALAIAGLVREREFHDEFSRPLAVLTTLGTTEATAARMRIHFEAWGYESVTFHTTGTGGQAMERMVNFEPVSAVVDLSLHELIDHHFGGAFDPGPERGRAALQKGIPTVIVPGNIDFLVTGPMAQAQIYFPGRRGHKHNANITCVRTSLEEIQRIAEIMAGYCNESTGPVAVLVPMKGFSCLDHEDGPQPDPEGPRVFAETFARALTRTIHFETVPLHINDEAFSEVIVGALQKIGGLRKIEADRLPSRQPATWSPYSSVHTLDRFSGNQHTTTETTGDALAALEHHHHHH | not soluble
MTVASTLGLNETQYATDDCLEEIINNTRAVRQDSEKTRFKLQINNFLAEVASGSLVINSDLIGSIEKRIADIDKLMSEQLSLIMHATEFQKIESAWTGLYKLVQASVTENVKYTVLHCTKKELLKDFKSASDFDQSVLFKNIYESEYGTFGGTPYSAFVGDFYFDNTPQDIDLLEHISHVAASAHAPFLSAIAPGMLSMSSFSELPYPRDLAKLFETTDYARWRSFRQTDDSRYVGLTLPQSLGRIPYGMKTIPAETFNFEEHISEDNSGKDYLWVNTAFELACRIVDAFEEYGWCAAIRGVEGGGLVKSLPAYNYVSHTGERLLQCPTEVAISDRREKELSDLGFIPLVYCKGTDFAAFFAVQSVNKARLYNTDQANANAKLSSQLQYILATSRFAHYLKVIVRDKVGSFMSRTECQTYLQNWIMQYVVASDNAGQETKARYPLREASVEVIEVPGSPGNYRAIAWIKPHFQLEGLSMSLRLVADLPSSVS | not soluble
SLHSMTAFAADEHLTPWGLLACELRSVNHRFLDIVIRLPEELRALESQLRERVAARVSRGKLDLTVRLSPQEIHTGKLVVNELLLSHLSTLALRLSAQFPALRVTFAELLQIPGVLKGEQIDMTTLQGHAVALLDKVLDNFIATREREGLKMQAMIAQRASAIERIVGEVRTLIPTIREGQHNKLNARMNHLSYPVDHGRIEQELVLWLQ | not soluble
SSGGKSAQGPEEGGVCITEALITKRNLTFPEDGELSEKMFHTLDELQTVRLDREGITTIRNLEGLQNLHSLYLQGNKIQQIENLACIPSLRFLSLAGNQIRQVENLLDLPCLQFLDLSENLIETLKLDEFPQSLLILNLSGNSCTNQDGYRELVTEALPLLLDLDGQPVVERWISDEEDEASSDEEFPELSGPFCSERGFLKELEQELSRHREHRQQTALTEHLLRMEMQPTLTDLPLLPGVPMAGDSSPSATPAQGEETVPEAVSSPQASSPTKKPCSLIPRGHQSSFWGRKGARAATAPKASVAEAPSTTKTTAKRSKK | soluble
MGSDKIHHHHHHMFEAFGDMSLDLLRAFEVAARLRSFTAAAIELGTIQPAVSQQIKRLEEQLATRLFDRIYRGIELTEAGEILFSHVQAGLQSIDSGLIAITEQQQHEVLQVATDFAFAAYWLMPRLHRFHKLNPDVDVSLVTSERTHSMLRADIDVTVLFGDGRFKQGESRWLFSEEVFPVCSPLLIADRQTPLPNDALRDFPLLHLRGDSINNWFDWSGVFRALDIPQAPAPGQLRFDNYTLLIQAAIGGQGIAIGWKHLVDDLLDQGLLCRPIAGAAISGHGYYVVLPQRKRRVQIVQQFMDWLASEQALSGVSLAGRPLPSIAV | not soluble
MGSDKIHHHHHHMSERPTLHVVSLSGGKDSTATLCVALEQHGSENVRAVMADTGNEDEQNLEYALDYLPRALGIPVDVVRADFTDEFATKRANLARIAAGEPESAVYGKREFMYRWTPEAAARALEVLHPTGIPFLDLCLVRGGFPSRKRQFCTQYLKTEQLVGYALREIDRGYAVWSWQGVRIDESDSRRERLQGTGACVKAFEVVGGGLFNYRPILRWSAADVFEAHAAAGIRPNPLYRQGMSRVGCMPCINAGKLELREIARRFPEHVERIAEWERLVSEVCRPGSPVSFFHQGTTGHTGQASTIWKVVDWSKTSRGGRQYDLLADAEPATACSSAYGLCE | not soluble
MRGSHHHHHHGLVPRGSMIRTMLQGKLHRVKVTHADLHYEAGSCAIDQDFLDAAGILENEAIDIWNVTNGKRFSTYAIAAERGSRIISVNGAAAHCASVGDIVIIASFVTMPDEEARTWRPNVAYFEGDNEMKRTAKAIPVQVA | soluble
MGSDKIHHHHHHVIALLKAYKFRLYPTKPQQEYFVKTFGCVRFVYNKMLEERIQLYEDSKLNPDAKQKLPTPAKYKPEFPFLKEVDSLSLANAQMDLNQAYQNFFRDQSVGFPKFKSKHNDRASYTTNNLKGSIRIEDRKVKLPKIGFVKLKQHRPFDGVIKSATVSMTKTRKFFISILVDQAEAQWVPAQNKVGIDLGLEHFAILTNDEWVSEKVANPRFLRKSEEKIKKAQRALSRKKIGSKNREKARIILAKKHEKIAHQRQDFLHKLSKRMVDDNQVIVVETLKSKNMMKNHKIAKSIGDVSWYGFVRQLEYKCAFYGRTLIKADQWYASTQICSSCGVKGEKKTIDVREWMCTCGAHHDRDINASINLLLLAD | not soluble
MCAKATMEEFEALLNESLQIDTPQEGSVVKGKVIAVEAGQAIIDVGYKMEGRVDLKEFADMSGSVDISVGDEVEVYLDRVENARGEAVISRDKAKREEAWDRLEKAYANETRVEGAIFGRVKGGFTVDLGGAVAFLPGSQVDVRPVRDAGPLMGMKQPFQILKMDRRRGNIVVSRRAILEESRAEQRAEVISNLFEGQTVDGVVKNITEYGAFVDLGGVDGLLHVTDMAWRRVNHPSEILSIGETVKVQVIKINKETHRISLGMKQLQSDPWDAVEKAYPIGSVHKGRVTNITDYGAFVELEAGVEGLVHVSEMSWTKKNVHPGKIVSTSQEVDVMVLEIDSAKRRVSLGLKQTMRNPWEVFAETHPVGTPIEGEVKNITEFGLFVGLEHDIDGMVHLSDLSWDQRGEEAIQNYRKGDVVKAVVTEVDTDKERISLSIKALGDDTFSEAIEGVKRGSVITVTVTAIEDGGIEVEYNSMKSFIRRSDLSRDRADQRPERFQVGDKVDVRVTNVDAKTRRLGLSIKAREIAEEKEAVEQYGSSDSGASLGDILGAALRNSDRGLEHHHHHH | soluble
